Source: article PMC9482650, “Quantitative fragmentomics allow affinity mapping of interactomes” (Nature Communications, 2022)

T1: ARHGAP21, Q5T5U3
T1 sequence (Q5T5U3 45-169, limits assumed, looked up): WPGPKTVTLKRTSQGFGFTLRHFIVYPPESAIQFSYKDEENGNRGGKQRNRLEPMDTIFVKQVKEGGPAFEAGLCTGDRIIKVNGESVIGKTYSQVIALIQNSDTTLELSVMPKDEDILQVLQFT

T2: FRMPD1, Q5SYB0
T2 sequence (Q5SYB0 52-145, limits assumed, looked up): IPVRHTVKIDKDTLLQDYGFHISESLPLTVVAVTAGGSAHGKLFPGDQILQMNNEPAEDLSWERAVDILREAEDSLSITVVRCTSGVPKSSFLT

T3: PDZRN3_1, Q9UPQ7
T3 sequence (Q9UPQ7 244-349, limits assumed, looked up): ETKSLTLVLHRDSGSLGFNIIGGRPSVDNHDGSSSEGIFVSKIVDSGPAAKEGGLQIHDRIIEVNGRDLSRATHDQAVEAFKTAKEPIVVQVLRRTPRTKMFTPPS

T4: RADIL, Q96JH8
T4 sequence (Q96JH8 971-1071, limits assumed, looked up): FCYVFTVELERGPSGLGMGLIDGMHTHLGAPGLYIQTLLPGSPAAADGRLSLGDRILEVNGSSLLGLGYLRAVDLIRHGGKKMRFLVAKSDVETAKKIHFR

T5: MPP2, Q14168
T5 sequence (Q14168 180-250, limits assumed, looked up): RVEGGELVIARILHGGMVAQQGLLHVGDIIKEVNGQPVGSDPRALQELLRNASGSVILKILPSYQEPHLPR

T6: CARD11, Q9BXL7
T6 sequence (Q9BXL7 662-765, limits assumed, looked up): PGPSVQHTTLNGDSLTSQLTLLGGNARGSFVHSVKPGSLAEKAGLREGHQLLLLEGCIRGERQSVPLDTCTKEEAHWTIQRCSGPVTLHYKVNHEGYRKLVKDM

T7: LIN7A, O14910
T7 sequence (O14910 103-200, limits assumed, looked up): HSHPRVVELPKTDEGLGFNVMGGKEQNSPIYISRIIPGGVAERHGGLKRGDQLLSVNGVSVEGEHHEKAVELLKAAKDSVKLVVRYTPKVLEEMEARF

T8: PARD3B_1, Q8TEW8
T8 sequence (Q8TEW8 196-299, limits assumed, looked up): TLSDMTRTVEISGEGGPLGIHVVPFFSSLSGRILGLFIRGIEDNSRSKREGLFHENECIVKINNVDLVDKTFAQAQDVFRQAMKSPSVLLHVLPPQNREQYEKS

T9: LNX2_3, Q8N448
T9 sequence (Q8N448 463-564, limits assumed, looked up): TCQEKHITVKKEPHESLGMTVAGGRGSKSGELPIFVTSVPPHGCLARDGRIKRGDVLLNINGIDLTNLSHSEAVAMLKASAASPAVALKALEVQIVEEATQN


target: ARHGEF12, Q9NZN5-2; assay: holdup assay; design: key: below the threshold = too weak to quantify, mostly under pKd 3.1 to 4; settings: plain residues with an end cap or a label only (N-terminal biotin on a linker: ado-ado)
Sequence (Q9NZN5 other isoform, or with tags, fused parts or gaps): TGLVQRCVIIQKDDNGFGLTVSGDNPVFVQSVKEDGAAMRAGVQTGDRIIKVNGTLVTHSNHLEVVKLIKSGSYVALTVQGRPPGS

Binder | pKd
DTKNYKQTSV [CRIPT, Q9P021] | 4.36
SFISKKEWYV [NECTIN1, Q15223] | below the threshold

target: T1, ARHGAP21, Q5T5U3; assay: holdup assay; design: key: below the threshold = too weak to quantify, mostly under pKd 3.1 to 4; settings: plain residues with an end cap or a label only (N-terminal biotin on a linker: ado-ado)

Binder | pKd
DTKNYKQTSV [CRIPT, Q9P021] | 3.75
SFISKKEWYV [NECTIN1, Q15223] | 4.04

target: T2, FRMPD1, Q5SYB0; assay: holdup assay; design: key: below the threshold = too weak to quantify, mostly under pKd 3.1 to 4; settings: plain residues with an end cap or a label only (N-terminal biotin on a linker: ado-ado)

Binder | pKd
DTKNYKQTSV [CRIPT, Q9P021] | below the threshold
SFISKKEWYV [NECTIN1, Q15223] | below the threshold

target: MAGI2_5, Q86UL8; assay: holdup assay; design: key: below the threshold = too weak to quantify, mostly under pKd 3.1 to 4; settings: plain residues with an end cap or a label only (N-terminal biotin on a linker: ado-ado)
Sequence (Q86UL8 915-1017): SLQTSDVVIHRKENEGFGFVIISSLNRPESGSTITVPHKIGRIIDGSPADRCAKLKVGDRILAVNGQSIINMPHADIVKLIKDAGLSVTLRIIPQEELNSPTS

Binder | pKd
DTKNYKQTSV [CRIPT, Q9P021] | 4.26
SFISKKEWYV [NECTIN1, Q15223] | below the threshold

target: LIMK2, P53671; assay: holdup assay; design: key: below the threshold = too weak to quantify, mostly under pKd 3.1 to 4; settings: plain residues with an end cap or a label only (N-terminal biotin on a linker: ado-ado)
Sequence (P53671 143-248): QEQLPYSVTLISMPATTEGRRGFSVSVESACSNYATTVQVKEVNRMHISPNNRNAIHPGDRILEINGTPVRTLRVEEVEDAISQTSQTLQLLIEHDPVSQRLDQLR

Binder | pKd
DTKNYKQTSV [CRIPT, Q9P021] | below the threshold
SFISKKEWYV [NECTIN1, Q15223] | below the threshold

target: SNX27, Q96L92; assay: holdup assay; design: key: below the threshold = too weak to quantify, mostly under pKd 3.1 to 4; settings: plain residues with an end cap or a label only (N-terminal biotin on a linker: ado-ado)

Binder | pKd
DTKNYKQTSV [CRIPT, Q9P021] | 5.33
SFISKKEWYV [NECTIN1, Q15223] | below the threshold

target: LDB3, O75112; assay: holdup assay; design: key: below the threshold = too weak to quantify, mostly under pKd 3.1 to 4; settings: plain residues with an end cap or a label only (N-terminal biotin on a linker: ado-ado)
Sequence (O75112 1-94): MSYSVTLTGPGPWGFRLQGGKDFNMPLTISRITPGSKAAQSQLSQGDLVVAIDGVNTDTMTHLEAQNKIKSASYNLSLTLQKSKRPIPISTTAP

Binder | pKd
DTKNYKQTSV [CRIPT, Q9P021] | below the threshold
SFISKKEWYV [NECTIN1, Q15223] | below the threshold

target: MAGI2_6, Q86UL8; assay: holdup assay; design: key: below the threshold = too weak to quantify, mostly under pKd 3.1 to 4; settings: plain residues with an end cap or a label only (N-terminal biotin on a linker: ado-ado)
Sequence (Q86UL8 1141-1229): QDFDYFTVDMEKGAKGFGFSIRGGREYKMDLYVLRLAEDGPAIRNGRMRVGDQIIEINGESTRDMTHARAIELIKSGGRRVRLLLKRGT

Binder | pKd
DTKNYKQTSV [CRIPT, Q9P021] | 3.75
SFISKKEWYV [NECTIN1, Q15223] | 3.56

target: DLG4_1, P78352; assay: holdup assay; design: key: below the threshold = too weak to quantify, mostly under pKd 3.1 to 4; settings: plain residues with an end cap or a label only (N-terminal biotin on a linker: ado-ado)
Sequence (P78352 62-152): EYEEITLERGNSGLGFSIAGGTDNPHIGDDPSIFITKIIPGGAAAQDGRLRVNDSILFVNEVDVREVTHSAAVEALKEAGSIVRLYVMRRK

Binder | pKd
DTKNYKQTSV [CRIPT, Q9P021] | 4.37
SFISKKEWYV [NECTIN1, Q15223] | below the threshold

target: T3, PDZRN3_1, Q9UPQ7; assay: holdup assay; design: key: below the threshold = too weak to quantify, mostly under pKd 3.1 to 4; settings: plain residues with an end cap or a label only (N-terminal biotin on a linker: ado-ado)

Binder | pKd
DTKNYKQTSV [CRIPT, Q9P021] | 4.12
SFISKKEWYV [NECTIN1, Q15223] | below the threshold

target: SCRIB_1, Q14160; assay: holdup assay; design: key: below the threshold = too weak to quantify, mostly under pKd 3.1 to 4; settings: plain residues with an end cap or a label only (N-terminal biotin on a linker: ado-ado)
Sequence (Q14160 718-814): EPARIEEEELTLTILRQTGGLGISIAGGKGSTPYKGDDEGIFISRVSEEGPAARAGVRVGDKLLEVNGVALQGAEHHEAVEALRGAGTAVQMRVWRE

Binder | pKd
DTKNYKQTSV [CRIPT, Q9P021] | 4.88
SFISKKEWYV [NECTIN1, Q15223] | below the threshold

target: T4, RADIL, Q96JH8; assay: holdup assay; design: key: below the threshold = too weak to quantify, mostly under pKd 3.1 to 4; settings: plain residues with an end cap or a label only (N-terminal biotin on a linker: ado-ado)

Binder | pKd
DTKNYKQTSV [CRIPT, Q9P021] | below the threshold
SFISKKEWYV [NECTIN1, Q15223] | 4.94

target: PTPN3, P26045; assay: holdup assay; design: key: below the threshold = too weak to quantify, mostly under pKd 3.1 to 4; settings: plain residues with an end cap or a label only (N-terminal biotin on a linker: ado-ado)
Sequence (P26045 505-587): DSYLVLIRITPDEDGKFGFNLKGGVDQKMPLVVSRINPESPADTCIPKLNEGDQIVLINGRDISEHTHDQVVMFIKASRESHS

Binder | pKd
DTKNYKQTSV [CRIPT, Q9P021] | 5.07
SFISKKEWYV [NECTIN1, Q15223] | 3.96

target: GIPC2, Q8TF65; assay: holdup assay; design: key: below the threshold = too weak to quantify, mostly under pKd 3.1 to 4; settings: plain residues with an end cap or a label only (N-terminal biotin on a linker: ado-ado)
Sequence (Q8TF65 112-203): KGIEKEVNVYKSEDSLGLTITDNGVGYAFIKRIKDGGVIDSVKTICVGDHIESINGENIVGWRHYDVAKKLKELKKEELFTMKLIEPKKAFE

Binder | pKd
DTKNYKQTSV [CRIPT, Q9P021] | below the threshold
SFISKKEWYV [NECTIN1, Q15223] | below the threshold

target: T5, MPP2, Q14168; assay: holdup assay; design: key: below the threshold = too weak to quantify, mostly under pKd 3.1 to 4; settings: plain residues with an end cap or a label only (N-terminal biotin on a linker: ado-ado)

Binder | pKd
DTKNYKQTSV [CRIPT, Q9P021] | below the threshold
SFISKKEWYV [NECTIN1, Q15223] | 4.46

target: MAGI1_1, Q96QZ7; assay: holdup assay; design: key: below the threshold = too weak to quantify, mostly under pKd 3.1 to 4; settings: plain residues with an end cap or a label only (N-terminal biotin on a linker: ado-ado)
Sequence (Q96QZ7 1-106): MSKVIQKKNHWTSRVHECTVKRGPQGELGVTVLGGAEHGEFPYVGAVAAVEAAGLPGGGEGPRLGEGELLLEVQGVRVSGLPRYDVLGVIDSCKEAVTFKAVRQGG

Binder | pKd
DTKNYKQTSV [CRIPT, Q9P021] | below the threshold
SFISKKEWYV [NECTIN1, Q15223] | below the threshold

target: MAST2, Q6P0Q8; assay: holdup assay; design: key: below the threshold = too weak to quantify, mostly under pKd 3.1 to 4; settings: plain residues with an end cap or a label only (N-terminal biotin on a linker: ado-ado)
Sequence (Q6P0Q8 1099-1202): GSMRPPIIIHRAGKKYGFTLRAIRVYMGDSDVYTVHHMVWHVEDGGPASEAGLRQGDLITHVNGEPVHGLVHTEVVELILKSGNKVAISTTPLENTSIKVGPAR

Binder | pKd
DTKNYKQTSV [CRIPT, Q9P021] | 5.35
SFISKKEWYV [NECTIN1, Q15223] | 4.44

target: Inadl_3, Q8NI35; assay: holdup assay; design: key: below the threshold = too weak to quantify, mostly under pKd 3.1 to 4; settings: plain residues with an end cap or a label only (N-terminal biotin on a linker: ado-ado)
Sequence (Q8NI35 359-469): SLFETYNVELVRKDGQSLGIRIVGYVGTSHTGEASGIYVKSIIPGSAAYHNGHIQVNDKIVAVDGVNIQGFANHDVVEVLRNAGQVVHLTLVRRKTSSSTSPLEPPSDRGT

Binder | pKd
DTKNYKQTSV [CRIPT, Q9P021] | below the threshold
SFISKKEWYV [NECTIN1, Q15223] | 4.83

target: DLG2_2, Q15700; assay: holdup assay; design: key: below the threshold = too weak to quantify, mostly under pKd 3.1 to 4; settings: plain residues with an end cap or a label only (N-terminal biotin on a linker: ado-ado)
Sequence (Q15700 189-283): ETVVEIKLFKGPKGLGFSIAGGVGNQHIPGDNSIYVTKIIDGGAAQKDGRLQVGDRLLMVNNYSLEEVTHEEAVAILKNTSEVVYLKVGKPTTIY

Binder | pKd
DTKNYKQTSV [CRIPT, Q9P021] | 4.71
SFISKKEWYV [NECTIN1, Q15223] | below the threshold

target: Inadl_10, Q8NI35; assay: holdup assay; design: key: below the threshold = too weak to quantify, mostly under pKd 3.1 to 4; settings: plain residues with an end cap or a label only (N-terminal biotin on a linker: ado-ado)
Sequence (Q8NI35 1673-1763): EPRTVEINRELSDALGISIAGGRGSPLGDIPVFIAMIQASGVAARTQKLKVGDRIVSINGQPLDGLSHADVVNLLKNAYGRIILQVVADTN

Binder | pKd
DTKNYKQTSV [CRIPT, Q9P021] | below the threshold
SFISKKEWYV [NECTIN1, Q15223] | below the threshold

target: GRIP2_6, Q9C0E4; assay: holdup assay; design: key: below the threshold = too weak to quantify, mostly under pKd 3.1 to 4; settings: plain residues with an end cap or a label only (N-terminal biotin on a linker: ado-ado)
Sequence (Q9C0E4 648-740): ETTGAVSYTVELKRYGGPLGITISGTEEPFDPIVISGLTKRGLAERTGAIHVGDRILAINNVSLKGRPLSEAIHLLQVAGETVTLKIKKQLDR

Binder | pKd
DTKNYKQTSV [CRIPT, Q9P021] | 3.52
SFISKKEWYV [NECTIN1, Q15223] | 4.3

target: T6, CARD11, Q9BXL7; assay: holdup assay; design: key: below the threshold = too weak to quantify, mostly under pKd 3.1 to 4; settings: plain residues with an end cap or a label only (N-terminal biotin on a linker: ado-ado)

Binder | pKd
DTKNYKQTSV [CRIPT, Q9P021] | below the threshold
SFISKKEWYV [NECTIN1, Q15223] | below the threshold

target: FRMPD3, Q5JV73; assay: holdup assay; design: key: below the threshold = too weak to quantify, mostly under pKd 3.1 to 4; settings: plain residues with an end cap or a label only (N-terminal biotin on a linker: ado-ado)
Sequence (Q5JV73 12-100): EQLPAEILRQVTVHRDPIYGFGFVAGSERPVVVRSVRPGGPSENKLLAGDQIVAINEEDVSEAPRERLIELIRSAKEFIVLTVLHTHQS

Binder | pKd
DTKNYKQTSV [CRIPT, Q9P021] | below the threshold
SFISKKEWYV [NECTIN1, Q15223] | 3.94

target: GRASP, Q7Z6J2; assay: holdup assay; design: key: below the threshold = too weak to quantify, mostly under pKd 3.1 to 4; settings: plain residues with an end cap or a label only (N-terminal biotin on a linker: ado-ado)
Sequence (Q7Z6J2 96-193): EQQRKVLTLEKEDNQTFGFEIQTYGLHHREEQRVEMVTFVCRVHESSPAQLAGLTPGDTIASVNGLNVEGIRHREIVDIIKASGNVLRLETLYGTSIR

Binder | pKd
DTKNYKQTSV [CRIPT, Q9P021] | 4.11
SFISKKEWYV [NECTIN1, Q15223] | below the threshold

target: NHERF4_1, Q86UT5-2; assay: holdup assay; design: key: below the threshold = too weak to quantify, mostly under pKd 3.1 to 4; settings: plain residues with an end cap or a label only (N-terminal biotin on a linker: ado-ado)
Sequence (Q86UT5 other isoform, or with tags, fused parts or gaps): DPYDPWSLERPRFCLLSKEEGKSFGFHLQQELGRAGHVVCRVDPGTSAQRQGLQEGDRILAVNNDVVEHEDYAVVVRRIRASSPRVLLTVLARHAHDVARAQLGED

Binder | pKd
DTKNYKQTSV [CRIPT, Q9P021] | 3.53
SFISKKEWYV [NECTIN1, Q15223] | below the threshold

target: Inadl_8, Q8NI35; assay: holdup assay; design: key: below the threshold = too weak to quantify, mostly under pKd 3.1 to 4; settings: plain residues with an end cap or a label only (N-terminal biotin on a linker: ado-ado)
Sequence (Q8NI35 1425-1530): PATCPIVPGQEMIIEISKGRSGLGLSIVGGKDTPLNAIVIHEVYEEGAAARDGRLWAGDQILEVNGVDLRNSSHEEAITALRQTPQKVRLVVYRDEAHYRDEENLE

Binder | pKd
DTKNYKQTSV [CRIPT, Q9P021] | 4.66
SFISKKEWYV [NECTIN1, Q15223] | 3.66

target: T7, LIN7A, O14910; assay: holdup assay; design: key: below the threshold = too weak to quantify, mostly under pKd 3.1 to 4; settings: plain residues with an end cap or a label only (N-terminal biotin on a linker: ado-ado)

Binder | pKd
DTKNYKQTSV [CRIPT, Q9P021] | 3.56
SFISKKEWYV [NECTIN1, Q15223] | below the threshold

target: T8, PARD3B_1, Q8TEW8; assay: holdup assay; design: key: below the threshold = too weak to quantify, mostly under pKd 3.1 to 4; settings: plain residues with an end cap or a label only (N-terminal biotin on a linker: ado-ado)

Binder | pKd
DTKNYKQTSV [CRIPT, Q9P021] | 3.48
SFISKKEWYV [NECTIN1, Q15223] | 4.73

target: T9, LNX2_3, Q8N448; assay: holdup assay; design: key: below the threshold = too weak to quantify, mostly under pKd 3.1 to 4; settings: plain residues with an end cap or a label only (N-terminal biotin on a linker: ado-ado)

Binder | pKd
DTKNYKQTSV [CRIPT, Q9P021] | below the threshold
SFISKKEWYV [NECTIN1, Q15223] | below the threshold
